Results as given in PMC9942304, “Identification of RimR2 as a positive pathway-specific regulator of rimocidin biosynthesis in Streptomyces rimosus M527”.

T1: RimR2 (Streptomyces rimosus M527, UniProt A0ABY3YSD1 1-918)
T1 sequence: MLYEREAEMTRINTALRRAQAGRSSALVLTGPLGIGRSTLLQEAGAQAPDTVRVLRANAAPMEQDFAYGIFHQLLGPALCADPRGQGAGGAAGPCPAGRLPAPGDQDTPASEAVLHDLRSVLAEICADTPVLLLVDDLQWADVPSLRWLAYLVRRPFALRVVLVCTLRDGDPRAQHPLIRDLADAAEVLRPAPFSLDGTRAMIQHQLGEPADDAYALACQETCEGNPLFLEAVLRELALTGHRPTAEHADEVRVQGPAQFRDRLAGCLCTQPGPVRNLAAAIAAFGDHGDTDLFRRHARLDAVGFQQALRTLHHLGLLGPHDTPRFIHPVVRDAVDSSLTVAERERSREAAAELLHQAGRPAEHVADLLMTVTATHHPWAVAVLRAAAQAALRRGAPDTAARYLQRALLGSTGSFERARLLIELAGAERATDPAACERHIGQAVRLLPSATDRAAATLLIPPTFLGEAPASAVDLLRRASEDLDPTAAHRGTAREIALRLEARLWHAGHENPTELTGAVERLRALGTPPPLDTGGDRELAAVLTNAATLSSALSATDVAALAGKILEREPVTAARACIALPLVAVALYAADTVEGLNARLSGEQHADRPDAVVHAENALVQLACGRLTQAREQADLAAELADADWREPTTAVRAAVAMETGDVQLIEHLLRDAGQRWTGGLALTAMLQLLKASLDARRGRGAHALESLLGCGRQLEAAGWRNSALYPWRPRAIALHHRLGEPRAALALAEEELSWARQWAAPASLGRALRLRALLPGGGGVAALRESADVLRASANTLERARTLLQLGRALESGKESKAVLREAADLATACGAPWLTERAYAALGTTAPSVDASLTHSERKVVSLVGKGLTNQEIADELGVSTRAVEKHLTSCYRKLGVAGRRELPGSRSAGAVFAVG

B1: rimC promoter probe (dsDNA)
DNA 1: CCCCATCCTGATCACAAAAGACTAAGGGAAATGTTAAAGGTACGGTGTGC
DNA 2: GCACACCGTACCTTTAACATTTCCCTTAGTCTTTTGTGATCAGGATGGGG
B2: rimA promoter probe (dsDNA)
DNA 1: ATCACCGTGCACGAGGGCTGACGCCCGCCCGGGCAGGAGCTCGTGTCCGA
DNA 2: TCGGACACGAGCTCCTGCCCGGGCGGGCGTCAGCCCTCGTGCACGGTGAT
B3: rimR2 promoter probe (dsDNA)
DNA 1: TACCTACAAGAAATTGCGTATCACCTCACGCAAGGAACTCCGCGCGCGGA
DNA 2: TCCGCGCGCGGAGTTCCTTGCGTGAGGTGATACGCAATTTCTTGTAGGTA

Experiments:
RimR2 [1] = biological target: T1, RimR2; experiment: EMSA; competed by 100-fold unlabeled probe; LightShift Chemiluminescent EMSA Kit (Thermo); 0.04 pmol/ul biotin probe, 10 ug RimR2; buffer, salt, pH and temperature not stated; details: protein: recombinant; tags: His6 (pET32a, EcoRV/BamHI); blunt
RimR2 [2] = biological target: T1, RimR2; experiment: EMSA; LightShift Chemiluminescent EMSA Kit (Thermo); 0.04 pmol/ul biotin probe, 10 ug RimR2; buffer, salt, pH and temperature not stated; details: protein: recombinant; tags: His6 (pET32a, EcoRV/BamHI); blunt

Row | Binder | binding result (RimR2 [1]) | binding result (RimR2 [2])
1 | B1 | binds | 
2 | B2 | binds | 
3 | B3 |  | binds
